How the values were obtained:
APS patient plasma = test: Surface plasmon resonance (BIAcore): APS patient plasma/serum over immobilized β2GPI proteins; format: binding, human; parameters: key: Req = fitted equilibrium plateau BIAcore response
From the text: (§1) Reagents. CM5 chips, NHS and EDC and HBS-EP buffer were from BIAcore. Human haptoglobin (phenotyope 1—1), a protein containing the short consensus repeat motif found in β2GPI, was immobilized in a separate flow cell on the chip and used as a negative control. Recombinant β2GPI and domain-deletion mutants of β2GPI were expressed in Tn5 cells using the baculovirus protein expression system and purified from the supernatants by nickel-chelation affinity column. Iverson et al. (1998) Proc. Natl. Acad. Sci. USA 95:15542-15546. Normal human plasma samples were purchased (George King Biomedical) or obtained in-house. Patient plasma samples from individuals diagnosed with either primary or secondary (to lupus) antiphospholipid antibody syndrome were obtained from a number of clinical sources.
(§2) The 55 controls used in this study were derived from a heterogenous sample. Thirty control samples (15 male; 15 female; mean age 34 yrs, range 19-45 yrs) purchased from George King Bio-Medical (Overland Park, Kans.), 5 local volunteers (3 male, 2 female), 2 pooled commercial sources and 18 blood bank donors of unknown origin were included in the analysis. The patient samples were collected from several sources and included patients with histories of venous thrombosis, arterial occlusions, cerebrovascular occlusions, multiple miscarriages and thrombocytopenia. All patients included in the study had IgG antiphospholipid antibody level (GPL) levels>20 by internal assay.
Total IgG fraction was isolated from plasma using Immunopure Plus protein G agarose beads and Immunopure IgG binding and elution buffers according to the manufacturers recommendation (Pierce).
(§3) Surface Plasmon Resonance. All experiments were performed using a BIAcore™ 2000 instrument at 25° C. with a flow rate of 10 μL/minute. Chip equilibration and binding studies were performed with degassed HBS-EP buffer, which consists of 0.01 M HEPES pH 7.4, 0.15 M NaCl, 3 mM EDTA and 0.005% (v/v) surfactant P20. Covalent coupling of protein ligands through their free amino groups to the CM5 chip was accomplished by flowing 40 μL of 0.05 M NHS/0.2M EDC over the chip to activate the chip, followed by exposure to the appropriate protein ligand. Recombinant β2GPI(His)6, domain-deletion mutants of β2GPI and haptoglobin were immobilized by flowing 50 μL of a 25 μg/mL solution in 10 mM acetate, (pH 4.8) over the NHS-activated CM5 chip. The excess reactive groups on the chip surface are then quenched with 40 μL of 1 M ethanoloamine, (pH 8.5). Human plasma samples (130 μL) were diluted 1:1 with HBS-EP, flowed over the β2GPI chip, and response values were collected for 780 seconds. The chips were regenerated between sample exposures with 80 μL of 0.1 M glycine-HCl (pH 2.1), 0.1 M NaCl. Since the approach to binding equilibrium was incomplete during the measurement period, the equilibrium binding value (Req) was determined by fitting the association curves to the following equation using the manufacturers software (BiaEvaluation version 2.2, Uppsala, Sweden) Rt=Req(I−e^−ks(t−t0))+R0 where Rt is the measured BIAcore response at time t, Req is the equilibrium plateau response, t is time, t0 is initial time, k, is an apparent association constant (ks=kaC+kdis, where ka is the association constant, C is the analyte concentration and kdis is the dissociation constant), and R0 is a response offset. In some experiments total IgG fractions from human plasma samples were obtained from binding to and acid elution from protein G. The plasma remaining after binding to protein G was remixed with fresh protein G beads and isolated as IgG-stripped plasma. Neutralized IgG preparations and IgG-stripped plasma diluted 1:1 with buffer were flowed over the β2GPI chip as described above. Results and Discussion

Normal human plasma = test: Surface plasmon resonance (BIAcore): control plasma/serum over immobilized β2GPI proteins; format: binding; conditions: serum of 55 controls
From the text: as §1, §2
as §3, with “Neutralized IgG preparations and IgG-stripped plasma diluted 1:1 with buffer were flowed over the β2GPI chip as described above. Results and Discussion” left out

B1: -2345: recombinant β2GPI deletion mutant with domains 2-5 (protein)
chain: GRTPRVCPFAGILENGAVRYTTFEYPNTISFSCNTGFYLNGADSAKCTEEGKWSPELPVCAPIICPPPSIPTFATLRVYKPSAGNNSLYRDTAVFECLPQHAMFGNDTITCTTHGNWTKLPECREVKCPFPSRPDNGFVNYPAKPTLYYKDKATFGCHDGYSLDGPEEIECTKLGNWSAMPSCKASCKLPVKKATVVYQGERVKIQEKFKNGMLHGDKVSFFCKNKEKKCSYTEDAQCIDGTIEVPKCFKEHSSLAFWKTDASDVKPCGHHHHHH
For B1, the Req (APS patient plasma; 43/106 APS patients with negligible interaction) was less than 9, the “BIAcore Req” value (APS patient plasma; non-selective patient 6117, IgG-stripped Plasma (1:2)) was 0 and the “BIAcore Req” value (APS patient plasma; non-selective patient 6117, Total IgG (1:4)) was 79. For the same molecule, the “BIAcore Req” value (APS patient plasma; non-selective patient 6117, Whole Plasma (1:2)) was 386, the “BIAcore Req” value (APS patient plasma; non-selective patient 6194, IgG-stripped Plasma (1:2)) was 0 and the “BIAcore Req” value (APS patient plasma; non-selective patient 6194, Total IgG (1:4)) was 688. The “BIAcore Req” value (APS patient plasma; non-selective patient 6194, Whole Plasma (1:2)) was 3197, the “BIAcore Req” value (APS patient plasma; non-selective patient 6611, IgG-stripped Plasma (1:2)) was 0 and the “BIAcore Req” value (APS patient plasma; non-selective patient 6611, Total IgG (1:4)) was 177. The “BIAcore Req” value (APS patient plasma; non-selective patient 6611, Whole Plasma (1:2)) was 1002, the “BIAcore Req” value (APS patient plasma; non-selective patient 6627, IgG-stripped Plasma (1:2)) was 0 and the “BIAcore Req” value (APS patient plasma; non-selective patient 6627, Total IgG (1:4)) was 182. For the same molecule, the “BIAcore Req” value (APS patient plasma; non-selective patient 6627, Whole Plasma (1:2)) was 549, the “BIAcore Req” value (APS patient plasma; non-selective patient 6649, IgG-stripped Plasma (1:2)) was 0 and the “BIAcore Req” value (APS patient plasma; non-selective patient 6649, Total IgG (1:4)) was 127. For the same molecule, the “BIAcore Req” value (APS patient plasma; non-selective patient 6649, Whole Plasma (1:2)) was 553, the “BIAcore Req” value (APS patient plasma; non-selective patient 7013, IgG-stripped Plasma (1:2)) was 0 and the “BIAcore Req” value (APS patient plasma; non-selective patient 7013, Total IgG (1:4)) was 75. For the same molecule, the “BIAcore Req” value (APS patient plasma; non-selective patient 7013, Whole Plasma (1:2)) was 167, the “BIAcore Req” value (APS patient plasma; patient 6207, IgG-stripped Plasma (1:2)) was 0 and the “BIAcore Req” value (APS patient plasma; patient 6207, Total IgG (1:4)) was 0. The “BIAcore Req” value (APS patient plasma; patient 6207, Whole Plasma (1:2)) was 19, the “BIAcore Req” value (APS patient plasma; patient 6501, IgG-stripped Plasma (1:2)) was 0 and the “BIAcore Req” value (APS patient plasma; patient 6501, Total IgG (1:4)) was 0. The “BIAcore Req” value (APS patient plasma; patient 6501, Whole Plasma (1:2)) was 333, the “BIAcore Req” value (APS patient plasma; patient 6515, IgG-stripped Plasma (1:2)) was 0 and the “BIAcore Req” value (APS patient plasma; patient 6515, Total IgG (1:4)) was 0. For the same molecule, the “BIAcore Req” value (APS patient plasma; patient 6515, Whole Plasma (1:2)) was 259, the “BIAcore Req” value (APS patient plasma; patient 6601, IgG-stripped Plasma (1:2)) was 0 and the “BIAcore Req” value (APS patient plasma; patient 6601, Total IgG (1:4)) was 0. For the same molecule, the “BIAcore Req” value (APS patient plasma; patient 6601, Whole Plasma (1:2)) was 84, the “BIAcore Req” value (APS patient plasma; patient 6626, IgG-stripped Plasma (1:2)) was 0 and the “BIAcore Req” value (APS patient plasma; patient 6626, Total IgG (1:4)) was 0. The “BIAcore Req” value (APS patient plasma; patient 6626, Whole Plasma (1:2)) was 37, the “BIAcore Req” value (APS patient plasma; patient 6642, IgG-stripped Plasma (1:2)) was 0 and the “BIAcore Req” value (APS patient plasma; patient 6642, Total IgG (1:4)) was 0. The “BIAcore Req” value (APS patient plasma; patient 6642, Whole Plasma (1:2)) was 8, the “BIAcore Req” value (APS patient plasma; patient 6701, IgG-stripped Plasma (1:2)) was 0 and the “BIAcore Req” value (APS patient plasma; patient 6701, Total IgG (1:4)) was 0. The “BIAcore Req” value (APS patient plasma; patient 6701, Whole Plasma (1:2)) was 199, the “BIAcore Req” value (APS patient plasma; patient 6703, IgG-stripped Plasma (1:2)) was 0 and the “BIAcore Req” value (APS patient plasma; patient 6703, Total IgG (1:4)) was 0. For the same molecule, the “BIAcore Req” value (APS patient plasma; patient 6703, Whole Plasma (1:2)) was 65, the “BIAcore Req” value (APS patient plasma; patient 7015, IgG-stripped Plasma (1:2)) was 0 and the “BIAcore Req” value (APS patient plasma; patient 7015, Total IgG (1:4)) was 0. For the same molecule, the “BIAcore Req” value (APS patient plasma; patient 7015, Whole Plasma (1:2)) was 158, the “BIAcore Req” value (APS patient plasma; patient 7201, IgG-stripped Plasma (1:2)) was 0 and the “BIAcore Req” value (APS patient plasma; patient 7201, Total IgG (1:4)) was 0. The “BIAcore Req” value (APS patient plasma; patient 7201, Whole Plasma (1:2)) was 0, the “Median Req” value (APS patient plasma; serum of 106 APS patients (GPL ≧ 20)) was 24 and the “Req (mean ± sem)” value (APS patient plasma; serum of 106 APS patients (GPL ≧ 20), diluted 1:1) was 158 ± 36. For the same molecule, the “Median Req” value (Normal human plasma) was 103 and the “Req (mean ± sem)” value (Normal human plasma; diluted 1:1) was 160 ± 26.
